This is an account of results in patent US7947468B2, “Methods” (Medical Research Council, priority 2007, dated 2011).

Substrate in data set [1]: CC[C@H](C)[C@H](NC(=O)[C@H](CCC(N)=O)NC(=O)[C@H](CCCNC(=N)N)NC(=O)[C@H](CC(C)C)NC(=O)[C@@H](NC(=O)[C@H](CCCCN)NC(=O)[C@H](Cc1ccc(O)cc1)NC(=O)[C@H](CCCCN)NC(=O)[C@H](CC(=O)O)NC(=O)[C@H](CCCNC(=N)N)NC(=O)CNC(=O)[C@H](CC(C)C)NC(=O)[C@@H](N)CCCNC(=N)N)[C@@H](C)O)C(=O)N[C@@H](CCCNC(=N)N)C(=O)N[C@@H](CCC(N)=O)C(=O)O
Nature of the data set: Assay of LRRK2 using LRRKtide as substrate (non-mutated enzyme). The format is biochemical, human. The settings on record: other: non-mutated GST-LRRK2[1326-2527], varying LRRKtide, 0.1 mM ATP, 30 min 30° C. The protocol:
(§1) Assay of LRRK2 using LRRKtide as substrate. Assays were set up in a total volume of 50 μl of Buffer A containing 0.5-0.7 μg of either wild type or mutant forms LRRK2, 10 mM MgCl2 and 0.1 mM [γ^32P]-ATP (300 cpm/pmol) in the presence of 300 μM or the indicated concentration of LRRKtide (RLGRDKYKTLRQIRQ; SEQ ID NO:1) peptide substrate. After incubation for 30 min at 30° C., reactions were terminated by applying 40 μl of the reaction mixture onto P81 phosphocellulose paper and phosphorylation of LRRKtide was quantified following washing the P81 phosphocellulose in 50 mM phosphoric acid and Cherenkov counting. One Unit (U) of LRRK2 activity was defined as the amount of enzyme that catalysed the incorporation of 1 nmol of ^32P into LRRKtide. Km and Vmax parameters were determined by performing the assay described above using varying concentration of LRRKtide. The Km and Vmax parameters were calculated using the Graph-Pad prism programme.

Substrate in data set [2]: CC[C@H](C)[C@H](NC(=O)[C@H](CCC(N)=O)NC(=O)[C@H](CCCNC(=N)N)NC(=O)[C@H](CC(C)C)NC(=O)[C@@H](NC(=O)[C@H](CCCCN)NC(=O)[C@H](Cc1ccc(O)cc1)NC(=O)[C@H](CCCCN)NC(=O)[C@H](CC(=O)O)NC(=O)[C@H](CCCNC(=N)N)NC(=O)CNC(=O)[C@H](CC(C)C)NC(=O)[C@@H](N)CCCNC(=N)N)[C@@H](C)O)C(=O)N[C@@H](CCCNC(=N)N)C(=O)N[C@@H](CCC(N)=O)C(=O)O
Briefly: Assay of LRRK2 using LRRKtide as substrate (G2019S mutant). The format is biochemical, human. The settings on record: other: GST-LRRK2[1326-2527, G2019S], varying LRRKtide, 0.1 mM ATP, 30 min 30° C. How it is done: as §1

Where a chain is given by its changes, count along the chain named. Names and notes keep the numbering of the source.

B1: GST-LRRK2[1326-2527] (Homo sapiens) (protein)
chain: LKKAVPYNRMKLMIVGNTGSGKTTLLQQLMKTKKSDLGMQSATVGIDVKDWPIQIRDKRKRDLVLNVWDFAGREEFYSTHPHFMTQRALYLAVYDLSKGQAEVDAMKPWLFNIKARASSSPVILVGTHLDVSDEKQRKACMSKITKELLNKRGFPAIRDYHFVNATEESDALAKLRKTIINESLNFKIRDQLVVGQLIPDCYVELEKIILSERKNVPIEFPVIDRKRLLQLVRENQLQLDENELPHAVHFLNESGVLLHFQDPALQLSDLYFVEPKWLCKIMAQILTVKVEGCPKHPKGIISRRDVEKFLSKKRKFPKNYMSQYFKLLEKFQIALPIGEEYLLVPSSLSDHRPVIELPHCENSEIIIRLYEMPYFPMGFWSRLINRLLEISPYMLSGRERALRPNRMYWRQGIYLNWSPEAYCLVGSEVLDNHPESFLKITVPSCRKGCILLGQVVDHIDSLMEEWFPGLLEIDICGEGETLLKKWALYSFNDGEEHQKILLDDLMKKAEEGDLLVNPDQPRLTIPISQIAPDLILADLPRNIMLNNDELEFEQAPEFLLGDGSFGSVYRAAYEGEEVAVKIFNKHTSLRLLRQELVVLCHLHHPSLISLLAAGIRPRMLVMELASKGSLDRLLQQDKASLTRTLQHRIALHVADGLRYLHSAMIIYRDLKPHNVLLFTLYPNAAIIAKIADYGIAQYCCRMGIKTSEGTPGFRAPEVARGNVIYNQQADVYSFGLLLYDILTTGGRIVEGLKFPNEFDELEIQGKLPDPVKEYGCAPWPMVEKLIKQCLKENPQERPTSAQVFDILNSAELVCLTRRILLPKNVIVECMVATHHNSRNASIWLGCGHTDRGQLSFLDLNTEGYTSEEVADSRILCLALVHLPVEKESWIVSGTQSGTLLVINTEDGKKRHTLEKMTDSVTCLYCNSFSKQSKQKNFLLVGTADGKLAIFEDKTVKLKGAAPLKILNIGNVSTPLMCLSESTNSTERNVMWGGCGTKIFSFSNDFTIQKLIETRTSQLFSYAAFSDSNIITVVVDTALYIAKQNSPVVEVWDKKTEKLCGLIDCVHFLREVMVKENKESKHKMSYSGRVKTLCLQKNTALWIGTGGGHILLLDLSTRRLIRVIYNFCNSVRVMMTAQLGSLKNVMLVLGYNRKNTEGTQKQKEIQSCLTVWDINLPHEVQNLEKHIEVRKELAEKMRRTSVE
notes: phosphorylated by both non-mutated GST-LRRK2[1326-2527] and GST-LRRK2[1326-2527, G2019S]; made in house; host or cells: HEK 293 cells, pEBG-2T vector
Take B1: the Km in data set [1] amounted to 200 µM.

B2: GST-LRRK2[1326-2527, G2019S] (Homo sapiens; G2019S) (protein)
chain: B1 chain with G694S
notes: made in house; host or cells: HEK 293 cells, pEBG-2T vector
Consider B2, for which, in data set [2], the Km was 200 µM and the Vmax was 10 U/mg.

By Km is commonly meant the concentration of substrate that gives half-maximal velocity.
